Reference: patent publication US20080199473A1 (CLEVELAND CLINIC FOUNDATION, published 2008)

Molecular target: T1, 35S-labelled luciferase (UniProt P08659 1-550 = luciferase, 35S label (in-vitro-translated))
T1 construct: Negative control of the pull-down; also called luciferase (about 61 kDa)
Experiment: GST pull-down, 35S-labelled luciferase

T1 sequence (P08659 whole entry): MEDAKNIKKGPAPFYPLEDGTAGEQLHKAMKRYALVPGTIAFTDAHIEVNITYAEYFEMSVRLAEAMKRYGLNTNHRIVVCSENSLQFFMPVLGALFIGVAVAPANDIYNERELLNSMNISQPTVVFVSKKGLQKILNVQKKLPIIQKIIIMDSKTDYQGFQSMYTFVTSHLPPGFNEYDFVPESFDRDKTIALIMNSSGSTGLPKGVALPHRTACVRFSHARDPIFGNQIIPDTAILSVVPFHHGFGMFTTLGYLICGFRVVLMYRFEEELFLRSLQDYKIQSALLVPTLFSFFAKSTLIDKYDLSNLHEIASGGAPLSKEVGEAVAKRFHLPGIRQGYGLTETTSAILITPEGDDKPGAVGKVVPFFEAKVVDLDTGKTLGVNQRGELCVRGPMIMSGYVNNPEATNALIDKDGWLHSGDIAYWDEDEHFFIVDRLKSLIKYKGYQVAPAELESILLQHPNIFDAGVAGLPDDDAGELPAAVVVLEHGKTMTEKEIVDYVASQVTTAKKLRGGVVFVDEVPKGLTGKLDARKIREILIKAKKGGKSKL

B1: GST-TWEAK protein (ligand, UniProt O43508 136-249, looked up)
chain: ARINSSSPLRYNRQIGEFIVTRAGLYYLYCQVHFDEGKAVYLKLDLLVDGVLALRCLEEFSATAASSLGPQLRLCQVSGLLALRPGSSLRIRTLPWAHLKAAPFLTYFGLFQVH
notes: also called GST-TWEAK fusion protein; not shown: glutathione S-transferase (GST) tag
B1: no binding.
